Assay results as given in US20150231203A1 (UTI LIMITED PARTNERSHIP, published 2015).
No end group written: not given here.

B2: USP5 (mouse, endogenous, from brain, DRG or dorsal horn lysate) (enzyme, UniProt P56399 2-858, looked up)
chain: AELSEEALLSVLPTIRVPKAGDRVHKDECAFSFDTPESEGGLYICMNTFLGFGKQYVERHFNKTGQRVYLHLRRTRRPKEEDTSAGTGDPPRKKPTRLAIGVEGGFDLTEDKFEFDEDVKIVILPDYLEIARDGLGGLPDIVRDRVTSAVEALLSADSASRKQEVQAWDGEVRQVSKHAFNLKQLDNPARIPPCGWKCSKCDMRENLWLNLTDGSILCGRRYFDGSGGNNHAVEHYRETGYPLAVKLGTITPDGADVYSYDEDDMVLDPSLAEHLSHFGIDMLKMQKTDKTMTELEIDMNQRIGEWELIQESGVPLKPLFGPGYTGIRNLGNSCYLNSVVQVLFSIPDFQRKYVDKLEKIFQNAPTDPTQDFSTQVAKLGHGLLSGEYSKPALESGDGEQVPEQKEVQDGIAPRMFKALIGKGHPEFSTNRQQDAQEFFLHLINMVERNCRSSENPNEVFRFLVEEKIKCLATEKVKYTQRVDYIMQLPVPMDAALNKEELLEYEEKKRQAEEEKVPLPELVRAQVPFSSCLEAYGAPEQVDDFWSTALQAKSVAVKTTRFASFPDYLVIQIKKFTFGLDWVPKKLDVSIEMPEELDISQLRGTGLQPGEEELPDIAPPLVTPDEPKGSLGFYGNEDEDSFCSPHFSSPTSPMLDESVIIQLVEMGFPMDACRKAVYYTGNSGAEAAMNWVMSHMDDPDFANPLILPGSSGPGSTSAAADPPPEDCVTTIVSMGFSRDQALKALRATNNSLERAVDWIFSHIDDLDAEAAMDISEGRSAAESISESVPVGPKVRDGPGKYQLFAFISHMGTSTMCGHYVCHIKKEGRWVIYNDQKVCASEKPPKDLGYIYFYQRVVS

Assays:
[1] = biological target: T1, WWP1 (mouse, endogenous, from DRG lysate) (mouse, UniProt Q8BZZ3 1-918); assay: affinity precipitation from mouse DRG lysate with biotinylated peptide, western blot for WWP1
T1 construct: also called HECT E3 ligase WWP1

[2] = biological target: B2; assay: affinity precipitation from mouse brain lysate with biotinylated peptide, western blot for USP5
[3] = biological target: T2, recombinant human USP5 short isoform (human, UniProt P45974-2 1-835); assay: in vitro binding assay of purified recombinant USP5 to biotinylated peptide, western blot
T2 construct: Purified recombinant protein bought from EnzoLifeSciences; also called hUSP5 short; USP5 short isoform (835 amino acids)
T2 sequence (looked up): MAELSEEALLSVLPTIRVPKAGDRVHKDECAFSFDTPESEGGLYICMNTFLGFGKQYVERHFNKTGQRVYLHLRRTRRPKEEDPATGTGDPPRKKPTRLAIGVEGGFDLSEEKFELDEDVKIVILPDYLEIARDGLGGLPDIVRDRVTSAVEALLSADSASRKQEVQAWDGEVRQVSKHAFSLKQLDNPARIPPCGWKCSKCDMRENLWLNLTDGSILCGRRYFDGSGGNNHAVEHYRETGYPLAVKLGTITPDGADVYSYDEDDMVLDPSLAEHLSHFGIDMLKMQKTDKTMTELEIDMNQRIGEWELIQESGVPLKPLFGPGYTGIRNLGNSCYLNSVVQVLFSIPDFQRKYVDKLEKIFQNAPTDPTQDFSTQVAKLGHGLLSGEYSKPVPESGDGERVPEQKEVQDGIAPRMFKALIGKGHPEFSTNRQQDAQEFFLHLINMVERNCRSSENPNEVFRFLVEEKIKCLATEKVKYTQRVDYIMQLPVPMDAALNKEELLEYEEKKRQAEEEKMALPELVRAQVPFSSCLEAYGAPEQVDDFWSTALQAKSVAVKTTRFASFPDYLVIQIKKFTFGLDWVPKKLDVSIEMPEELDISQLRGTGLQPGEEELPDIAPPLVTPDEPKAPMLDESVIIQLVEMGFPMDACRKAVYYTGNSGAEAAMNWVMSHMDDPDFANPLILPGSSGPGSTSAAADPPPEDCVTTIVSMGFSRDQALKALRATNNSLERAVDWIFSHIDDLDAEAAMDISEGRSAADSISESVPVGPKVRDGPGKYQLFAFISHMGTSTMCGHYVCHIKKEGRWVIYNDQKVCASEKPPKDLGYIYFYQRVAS

[4] = biological target: T3, recombinant human USP5 long isoform (human, UniProt P45974 1-858); assay: as above
T3 construct: Purified recombinant protein bought from EnzoLifeSciences; also called hUSP5 long; USP5 long isoform (858 amino acids)
T3 sequence: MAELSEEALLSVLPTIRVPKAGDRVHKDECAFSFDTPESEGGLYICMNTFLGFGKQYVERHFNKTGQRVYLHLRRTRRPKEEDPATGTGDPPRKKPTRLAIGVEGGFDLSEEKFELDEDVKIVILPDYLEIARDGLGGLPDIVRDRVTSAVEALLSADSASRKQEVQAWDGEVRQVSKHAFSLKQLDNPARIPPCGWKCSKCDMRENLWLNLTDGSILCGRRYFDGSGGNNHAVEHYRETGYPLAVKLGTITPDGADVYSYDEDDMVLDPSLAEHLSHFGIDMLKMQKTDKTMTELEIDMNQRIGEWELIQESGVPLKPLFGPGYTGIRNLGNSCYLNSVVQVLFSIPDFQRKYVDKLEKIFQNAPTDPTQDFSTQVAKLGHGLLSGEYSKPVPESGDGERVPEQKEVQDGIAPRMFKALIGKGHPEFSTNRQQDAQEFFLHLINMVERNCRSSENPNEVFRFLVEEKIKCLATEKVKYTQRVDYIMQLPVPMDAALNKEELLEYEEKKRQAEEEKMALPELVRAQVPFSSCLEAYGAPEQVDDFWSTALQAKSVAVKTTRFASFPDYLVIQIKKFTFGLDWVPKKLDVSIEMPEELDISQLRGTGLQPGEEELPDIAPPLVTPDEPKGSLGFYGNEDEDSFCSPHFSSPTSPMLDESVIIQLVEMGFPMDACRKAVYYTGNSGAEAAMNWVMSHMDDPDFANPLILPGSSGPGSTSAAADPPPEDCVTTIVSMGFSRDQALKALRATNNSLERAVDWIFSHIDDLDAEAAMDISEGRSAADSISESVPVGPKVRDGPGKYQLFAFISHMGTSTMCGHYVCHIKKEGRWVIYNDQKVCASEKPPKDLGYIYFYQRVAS

[5] = biological target: Cav3.2 channel (mouse, endogenous full-length channel from DRG, brain or dorsal horn) (mouse, UniProt O88427 1-2365, limits assumed); assay: cell-based or functional assay
[6] = biological target: B2; assay: affinity precipitation from mouse brain lysate with biotinylated Tat peptide (25 µg), western blot for USP5
[7] = biological target: B2; assay: in vitro competition by affinity precipitation from mouse brain lysate; competitor 50 µg against biotin-Tat peptide 25 µg

Cav3.2 channel (mouse, endogenous full-length channel from DRG, brain or dorsal horn), sequence (O88427 whole entry): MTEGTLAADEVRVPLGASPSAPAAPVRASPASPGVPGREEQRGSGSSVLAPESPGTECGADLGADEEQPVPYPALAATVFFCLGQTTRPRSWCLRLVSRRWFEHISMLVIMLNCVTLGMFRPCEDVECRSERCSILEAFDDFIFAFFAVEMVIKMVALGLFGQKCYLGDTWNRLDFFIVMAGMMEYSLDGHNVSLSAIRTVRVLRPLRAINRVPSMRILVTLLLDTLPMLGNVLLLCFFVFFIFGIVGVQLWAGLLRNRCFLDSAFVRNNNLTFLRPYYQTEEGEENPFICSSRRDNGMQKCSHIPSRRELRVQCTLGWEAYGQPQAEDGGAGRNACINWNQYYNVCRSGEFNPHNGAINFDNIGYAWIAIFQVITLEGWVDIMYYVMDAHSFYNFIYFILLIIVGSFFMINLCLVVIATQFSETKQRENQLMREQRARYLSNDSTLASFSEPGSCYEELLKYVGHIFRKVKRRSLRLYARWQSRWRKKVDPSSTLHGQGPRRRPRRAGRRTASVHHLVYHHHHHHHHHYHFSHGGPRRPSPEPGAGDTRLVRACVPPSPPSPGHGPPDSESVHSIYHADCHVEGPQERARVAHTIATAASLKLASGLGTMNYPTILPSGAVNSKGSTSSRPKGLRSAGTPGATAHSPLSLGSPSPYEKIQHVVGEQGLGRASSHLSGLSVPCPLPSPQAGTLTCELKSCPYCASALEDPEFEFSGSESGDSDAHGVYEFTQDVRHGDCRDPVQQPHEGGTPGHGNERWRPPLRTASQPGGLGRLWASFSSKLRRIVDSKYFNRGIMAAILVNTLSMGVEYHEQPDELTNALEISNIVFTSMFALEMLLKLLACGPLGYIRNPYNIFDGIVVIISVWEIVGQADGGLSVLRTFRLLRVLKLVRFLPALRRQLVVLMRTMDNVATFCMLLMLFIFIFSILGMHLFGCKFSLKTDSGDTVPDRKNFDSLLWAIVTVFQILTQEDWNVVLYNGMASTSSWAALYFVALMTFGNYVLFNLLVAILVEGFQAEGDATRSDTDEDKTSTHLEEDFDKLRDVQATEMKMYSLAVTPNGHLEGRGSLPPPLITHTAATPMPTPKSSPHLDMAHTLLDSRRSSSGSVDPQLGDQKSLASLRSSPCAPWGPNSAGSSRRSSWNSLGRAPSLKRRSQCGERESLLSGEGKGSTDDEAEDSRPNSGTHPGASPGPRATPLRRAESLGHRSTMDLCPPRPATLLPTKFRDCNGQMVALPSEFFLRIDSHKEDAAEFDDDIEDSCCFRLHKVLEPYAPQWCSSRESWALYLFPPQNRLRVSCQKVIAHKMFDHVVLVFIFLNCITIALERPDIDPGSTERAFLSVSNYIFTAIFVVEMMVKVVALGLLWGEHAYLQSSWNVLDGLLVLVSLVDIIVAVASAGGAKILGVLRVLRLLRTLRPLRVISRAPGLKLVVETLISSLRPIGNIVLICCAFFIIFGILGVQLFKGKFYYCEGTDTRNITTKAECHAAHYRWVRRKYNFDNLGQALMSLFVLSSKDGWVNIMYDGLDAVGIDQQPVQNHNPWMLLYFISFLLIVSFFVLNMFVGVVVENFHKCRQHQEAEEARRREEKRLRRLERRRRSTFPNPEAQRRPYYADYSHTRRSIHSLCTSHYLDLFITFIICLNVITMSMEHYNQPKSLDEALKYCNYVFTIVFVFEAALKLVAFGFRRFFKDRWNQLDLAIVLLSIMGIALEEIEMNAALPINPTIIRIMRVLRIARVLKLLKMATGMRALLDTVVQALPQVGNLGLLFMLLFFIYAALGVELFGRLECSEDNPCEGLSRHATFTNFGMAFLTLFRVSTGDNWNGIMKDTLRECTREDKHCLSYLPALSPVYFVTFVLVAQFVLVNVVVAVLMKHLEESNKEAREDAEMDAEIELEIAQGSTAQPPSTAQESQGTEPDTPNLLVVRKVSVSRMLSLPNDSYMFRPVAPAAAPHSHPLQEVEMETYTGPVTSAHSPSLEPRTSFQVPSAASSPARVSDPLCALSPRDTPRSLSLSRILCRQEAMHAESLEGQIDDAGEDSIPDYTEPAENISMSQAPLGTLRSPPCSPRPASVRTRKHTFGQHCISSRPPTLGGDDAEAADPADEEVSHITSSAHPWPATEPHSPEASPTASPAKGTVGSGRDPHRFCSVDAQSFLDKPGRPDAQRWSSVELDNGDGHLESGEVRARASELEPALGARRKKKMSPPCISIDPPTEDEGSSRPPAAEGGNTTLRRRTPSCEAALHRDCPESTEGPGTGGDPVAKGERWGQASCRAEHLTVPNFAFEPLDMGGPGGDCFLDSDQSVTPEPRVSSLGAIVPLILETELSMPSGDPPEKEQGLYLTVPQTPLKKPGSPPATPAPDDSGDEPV

B1: human biotin-Cav3.2 1556-1602 III-IV linker peptide (peptide, UniProt O95180-2 1556-1602, looked up)
peptide: ENFHKCRQHQEAEEARRREEKRLRRLERRRRKAQRRPYYADYSPTRR-biotin
modifications: not fully specified
notes: Synthetic peptide containing the PY motif; also called long III-IV linker
binding result [1]: binds
binding result [2]: binds
binding result [3]: binds
binding result [4]: binds

B2
channel ubiquitination of Cav3.2 immunoprecipitates from CAD cells transfected with USP5-shRNA against USP15-shRNA [5]: ~5 fold

B3: human biotin-Cav3.2 1860-1884 C-terminus peptide (peptide, UniProt O95180-2 1860-1884, looked up)
peptide: SNKEAREDAELDAEIELEMAQGPGS-biotin
modifications: not fully specified
notes: Control peptide; also called hCav3.21860-1884 (CT); Cav3.2 C-terminus peptide
binding result [2]: no binding
binding result [3]: no binding
binding result [4]: no binding

B4: biotin-Tat-3.2 III-IV 1569-1589 linker peptide (peptide)
peptide: YGRKKRRQRRREARRREEKRLRRLERRRRKAQ
modifications: not fully specified (N-terminus); also: biotin, position not given here
notes: also called biotinylated Cav3.21569-1589 III-IV linker peptide; Tat-Cav3.21569-1589 III-IV linker peptide
binding result [6]: binds

B5: Tat-Cav3.2 1569-1589 III-IV linker peptide (non-biotinylated) (peptide)
peptide: YGRKKRRQRRREARRREEKRLRRLERRRRKAQ
notes: also called Tat-3.2-III-IV1569-1589 linker; Tat-3.2-III-IV
binding result [7]: binds

B6: human biotin-Cav3.2 1569-1586 short III-IV linker peptide (peptide, UniProt O95180-2 1569-1586, looked up)
peptide: EARRREEKRLRRLERRRR
modifications: also: biotin, position not given here
notes: range 1569-1586; Synthetic peptide lacking the PY motif; also called hCav3.21569-1586; 18 amino acid short peptide lacking the PY motif
binding result [1]: binds
